Assays:
[1] = target: T1, LDHB peptide VIKLKGYTNWAIGLS; experiment: SPR sensorgrams (Response in RU), series 15.625-500 nM
T1 construct: also called l-lactate dehydrogenase B chain (LDHB) isoform X1 peptide
T1 peptide: VIKLKGYTNWAIGLS

[2] = target: T2, MALRD1 peptide TQDSEDDLDWAIGSR; experiment: as above
T2 construct: also called MAM and LDL-receptor class A domain-containing protein 1 isoform X1 peptide
T2 peptide: TQDSEDDLDWAIGSR

binding result [1]: no binding (tested: 500 nM)
binding result [2]: no binding (tested: 500 nM)
B1: STC43H11-1 (antibody, V domains shown)
VH: QSLEESGGRLVTPGGSLTLTCTVSGIDLSSYAMGWVRQAPGEGLEWIGSIGTGGGTGYASWAKGRFTISKTSTTVDLKMTSLTASDTATYFCATSNLWGPGTLVTVSS
VL: QVLTQTASPVSAAVGGTVTINCQASQSVYNNNRCSWFQQKPGQPPKRLIYHTSTLDSGVPSRFKGSGSGTQFTLTISDVQCDDAATYYCLGNYDCSRADCAAFGGGTEVVVK
notes: From immunized New Zealand rabbits; IgG heavy chain and Kappa light chain; also called clone #43H11; Clone 43H11

Reference: US20250189530A1 (STCUBE, published 2025)
